Biological target: human CD4, membrane-bound on the surface of cells (human, UniProt P01730 26-458)
Experiment: cell-based or functional assay

B1: murine monoclonal antibody B4 (mAb B4) (antibody, V domains shown)
VH: QVQLQQSGPELVKPGASVRMSCKASGYTFTDYVIHWVKQRTGQGLEWIGEIYPGSGSAYSNAKFKDKATLTADKSSNTAYMQLSSLTSEDSAVYFCARRGNGTGFAYWGQGTLVTVSA
VL: DIVLTQSPASLAVSLGQRATISCKAGQSVDYDGDSYMNWYQQKPGQPPKLLIYVASNLESGIPARFSGSGSGTDFTLNIHPVEEEDAATYYCQQSYKDPLTFGAGTKLELK
**Q.** Which results are given for B1?
**A.** IC50, HIV entry inhibition (PhenoSense), control virus 92HT594: 0.021 µg/mL; IC50, HIV entry inhibition (PhenoSense), control virus JRCSF: 0.034 µg/mL; IC50, HIV entry inhibition (PhenoSense), control virus JRFL: 0.074 µg/mL; IC50, HIV entry inhibition (PhenoSense), isolate 92/RW/008, clade A: 0.026 µg/mL; IC50, HIV entry inhibition (PhenoSense), isolate 92/RW/024, clade A: 0.055 µg/mL; IC50, HIV entry inhibition (PhenoSense), isolate 92/TH/005, clade EA: 0.012 µg/mL; IC50, HIV entry inhibition (PhenoSense), isolate 92/TH/006, clade EA: 0.022 µg/mL; IC50, HIV entry inhibition (PhenoSense), isolate 92/TH/007, clade EA: 0.013 µg/mL; IC50, HIV entry inhibition (PhenoSense), isolate 92/TH/009, clade EA: 0.021 µg/mL; IC50, HIV entry inhibition (PhenoSense), isolate 92/TH/019, clade EA: 0.022 µg/mL; IC50, HIV entry inhibition (PhenoSense), isolate 92/TH/020, clade EA: 0.015 µg/mL; IC50, HIV entry inhibition (PhenoSense), isolate 92/TH/021, clade EA: 0.017 µg/mL; IC50, HIV entry inhibition (PhenoSense), isolate 92/TH/022, clade EA: 0.012 µg/mL; IC50, HIV entry inhibition (PhenoSense), isolate 92/TH/024, clade EA: 0.01 µg/mL; IC50, HIV entry inhibition (PhenoSense), isolate 92/UG/001, clade D: 0.018 µg/mL; IC50, HIV entry inhibition (PhenoSense), isolate 92/UG/005, clade D: 0.019 µg/mL; IC50, HIV entry inhibition (PhenoSense), isolate 92/UG/021, clade D: 0.017 µg/mL; IC50, HIV entry inhibition (PhenoSense), isolate 92/UG/024, clade D: 0.04 µg/mL; IC50, HIV entry inhibition (PhenoSense), isolate 92/UG/035, clade D: 0.011 µg/mL; IC50, HIV entry inhibition (PhenoSense), isolate 92/UG/038, clade D: 0.014 µg/mL; IC50, HIV entry inhibition (PhenoSense), isolate 92/UG/046, clade D: 0.015 µg/mL; IC50, HIV entry inhibition (PhenoSense), isolate 92/UG/053, clade D: 0.02 µg/mL; IC50, HIV entry inhibition (PhenoSense), isolate 92/UG/065, clade D: 0.015 µg/mL; IC50, HIV entry inhibition (PhenoSense), isolate 93/BR/019, clade BF: 0.013 µg/mL; IC50, HIV entry inhibition (PhenoSense), isolate 93/BR/020, clade F: 0.024 µg/mL; IC50, HIV entry inhibition (PhenoSense), isolate 93/IN/101, clade C: 0.016 µg/mL; IC50, HIV entry inhibition (PhenoSense), isolate 93/RW/029, clade A: 0.019 µg/mL; IC50, HIV entry inhibition (PhenoSense), isolate 93/TH/057, clade E: 0.023 µg/mL; IC50, HIV entry inhibition (PhenoSense), isolate 93/TH/305, clade E: 0.021 µg/mL; IC50, HIV entry inhibition (PhenoSense), isolate 93/UG/067, clade D: 0.016 µg/mL; IC50, HIV entry inhibition (PhenoSense), isolate 93/UG/070, clade D: 0.011 µg/mL; IC50, HIV entry inhibition (PhenoSense), isolate 93/UG/077, clade A: 0.012 µg/mL; IC50, HIV entry inhibition (PhenoSense), isolate 93/UG/082, clade D: 0.016 µg/mL; IC50, HIV entry inhibition (PhenoSense), isolate 93/UG/086, clade D: 0.015 µg/mL; IC50, HIV entry inhibition (PhenoSense), isolate 94/UG/103, clade A: 0.021 µg/mL; IC50, HIV entry inhibition (PhenoSense), isolate 94/UG/105, clade D: 0.021 µg/mL; IC50, HIV entry inhibition (PhenoSense), isolate 94/UG/114, clade D: 0.015 µg/mL; IC50, HIV entry inhibition (PhenoSense), isolate 94/UG/117, clade D: 0.017 µg/mL; IC50, HIV entry inhibition (PhenoSense), isolate 94/UG/118, clade D: 0.02 µg/mL; IC50, HIV entry inhibition (PhenoSense), isolate 10215-6, clade C: 0.018 µg/mL; IC50, HIV entry inhibition (PhenoSense), isolate 10362, clade C: 0.02 µg/mL; IC50, HIV entry inhibition (PhenoSense), isolate 11657-3, clade C: 0.025 µg/mL; IC50, HIV entry inhibition (PhenoSense), isolate 20635-4, clade C: 0.02 µg/mL; IC50, HIV entry inhibition (PhenoSense), isolate 21068, clade C: 0.011 µg/mL; IC50, HIV entry inhibition (PhenoSense), isolate CA1, clade A: 0.011 µg/mL; IC50, HIV entry inhibition (PhenoSense), isolate CA2, clade A: 0.018 µg/mL; IC50, HIV entry inhibition (PhenoSense), isolate CA3, clade A: 0.019 µg/mL; IC50, HIV entry inhibition (PhenoSense), isolate CC1, clade C: 0.016 µg/mL; IC50, HIV entry inhibition (PhenoSense), isolate CC2, clade C: 0.021 µg/mL; IC50, HIV entry inhibition (PhenoSense), isolate CC3, clade C: 0.012 µg/mL; IC50, HIV entry inhibition (PhenoSense), isolate CC4, clade C: 0.013 µg/mL; IC50, HIV entry inhibition (PhenoSense), isolate CC5, clade C: 0.019 µg/mL; IC50, HIV entry inhibition (PhenoSense), isolate CC6, clade C: 0.018 µg/mL; IC50, HIV entry inhibition (PhenoSense), isolate CC7, clade C: 0.013 µg/mL; IC50, HIV entry inhibition (PhenoSense), isolate CC8, clade C: 0.019 µg/mL; IC50, HIV entry inhibition (PhenoSense), isolate CC9, clade C: 0.02 µg/mL; IC50, HIV entry inhibition (PhenoSense), isolate CC10, clade C: 0.015 µg/mL; IC50, HIV entry inhibition (PhenoSense), isolate CD1, clade D: 0.016 µg/mL; IC50, HIV entry inhibition (PhenoSense), isolate CF2, clade F: 0.016 µg/mL; IC50, HIV entry inhibition (PhenoSense), isolate CF3, clade F: 0.024 µg/mL; IC50, HIV entry inhibition (PhenoSense), isolate CF4, clade F: 0.019 µg/mL; IC50, HIV entry inhibition (PhenoSense), isolate CF5, clade F: 0.018 µg/mL; IC50, HIV entry inhibition (PhenoSense), isolate CF6, clade F: 0.018 µg/mL; IC50, HIV entry inhibition (PhenoSense), isolate CF7, clade F: 0.019 µg/mL; IC50, HIV entry inhibition (PhenoSense), isolate CF8, clade F: 0.017 µg/mL; IC50, HIV entry inhibition (PhenoSense), isolate CG1, clade G: 0.018 µg/mL; IC50, HIV entry inhibition (PhenoSense), isolate CG2, clade G: 0.027 µg/mL; IC50, HIV entry inhibition (PhenoSense), isolate CG3, clade G: 0.016 µg/mL; IC50, HIV entry inhibition (PhenoSense), isolate CG4, clade G: 0.013 µg/mL; IC50, HIV entry inhibition (PhenoSense), isolate CJ1, clade J: 0.018 µg/mL; IC50, HIV entry inhibition (PhenoSense), isolate CJ2, clade J: 0.019 µg/mL; IC50, HIV entry inhibition (PhenoSense), isolate CMU02, clade EA: 0.011 µg/mL; IC50, HIV entry inhibition (PhenoSense), isolate CMU06, clade E: 0.026 µg/mL; IC50, HIV entry inhibition (PhenoSense), isolate MW/93/959, clade C: 0.019 µg/mL; IC50, HIV entry inhibition (PhenoSense), isolate MW/93/960, clade C: 0.01 µg/mL; IC50, HIV entry inhibition (PhenoSense), isolate QZ4589, clade E?: 0.036 µg/mL; average IC50, HIV entry inhibition (PhenoSense), all viruses of the table: 0.018 µg/mL
